Assay results: article PMC4446428, “A novel RNA binding surface of the TAM domain of TIP5/BAZ2A mediates epigenetic regulation of rRNA genes”

Legend:
[1] = tested on: TIP5/TAM-AT (Homo sapiens); experiment: filter binding (Scatchard); conditions: 5 mM Mg2+, protein preincubated with 4x excess unlabeled MCS-RNA, EMSA: 12 mM Tris-HCl pH 8.0, 100 mM KCl, 5 mM MgCl2, 0.1 mM EDTA, 0.5 mM DTT, 3% glycerol, on ice, filter binding: 10 mM Tris-HCl pH 7.4, 100 mM KCl
TIP5/TAM [2] = molecular target: T1, TIP5/TAM (Homo sapiens, UniProt Q9UIF9 516-623); experiment: NMR titration; EMSA: 12 mM Tris-HCl pH 8.0, 100 mM KCl, 5 mM MgCl2, 0.1 mM EDTA, 0.5 mM DTT, 3% glycerol, on ice; filter binding: 10 mM Tris-HCl pH 7.4, 100 mM KCl, 5 mM MgCl2, on ice; NMR: 20 mM Na phosphate pH 7.0, 50 mM NaCl, 1 mM DTT, 298 K (TAM-AT) or 293 K (TAM); conditions: protein: recombinant; tags: His6-GB1, TEV-removed; label: none; hairpin
T1 sequence: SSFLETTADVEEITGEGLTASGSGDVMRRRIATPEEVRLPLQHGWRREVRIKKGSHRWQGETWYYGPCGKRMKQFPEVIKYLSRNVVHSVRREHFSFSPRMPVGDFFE

TIP5/TAM [3] = molecular target: T1, TIP5/TAM; experiment: NMR titration; negligible shift changes; EMSA: 12 mM Tris-HCl pH 8.0, 100 mM KCl, 5 mM MgCl2, 0.1 mM EDTA, 0.5 mM DTT, 3% glycerol, on ice; filter binding: 10 mM Tris-HCl pH 7.4, 100 mM KCl, 5 mM MgCl2, on ice; NMR: 20 mM Na phosphate pH 7.0, 50 mM NaCl, 1 mM DTT, 298 K (TAM-AT) or 293 K (TAM); conditions: protein: recombinant; tags: His6-GB1, TEV-removed; label: none; single-stranded

pRNA (mouse rDNA -204/-1) was tested, and the Kd [1] was 5.5 nM.

GGCGCAUCGGCGCC (structured_RNA) [Xist A-repeat RNA hairpin]: binds (TIP5/TAM [2]).

UUUUUUUUUUUUU (ssRNA) [13-mer poly-U RNA]: no binding (TIP5/TAM [3]).
